Experimental data as given in article PMC5772516.
“And” between values parts separate entries of the source, which are not always exact repeats. Equal entries are not always repeated.

Legend:
[1] = target: vascular endothelial growth factor (VEGF165) (human); experiment: solid-state nanopore translocation; 0.2 nM to 100 nM VEGF, pH 7.2, V = −500 mV, ~5–6.5 nm pore; 1 M KCl, 50 mM phosphate buffer, 5 mM EDTA, 22.0 ± 0.5 °C; 0.5 mM TCEP added afterwards shifts the events to single-level group A (71%)
[2] = target: vascular endothelial growth factor (VEGF165) (human); experiment: solid-state nanopore translocation; 20 nM VEGF, pH 7.6, V = +500 mV, ~5.5 nm pore in 12 nm SiNx; 1 M KCl, 50 mM phosphate buffer, 5 mM EDTA, 22.0 ± 0.5 °C; then 0.5 mM TCEP added in the same pore (events converge into one lower-amplitude group, 92%)
[3] = target: vascular endothelial growth factor (VEGF165) (human); experiment: SDS-PAGE; VEGF solution before reduction (non-reducing)

vascular endothelial growth factor (VEGF165) (natural protein)
percent of translocation events in group B (dimer) at 20 nM [1]: 12%
percent of translocation events in level B and B/A (dimeric state) at 0.2 nM [1]: 6%
percent of translocation events in level B and B/A (dimeric state) at 100 nM [1]: 59%
percent of translocation events with a B to A multi-level pattern at 20 nM [1]: 28%
stoichiometry N [1]: 2
stoichiometry N [2]: 2 and 3
stoichiometry N [3]: 2 and 3
